Assay results taken from patent US20240400717A1, “Antibody Binding to CHI3L1 for Treating Cancer” (National Cheng Kung University, priority 2021, published 2024).

What was measured:
[1] = molecular target: CHI3L1-receptor(s) interaction on HCT116, SW480, SW620, PANC1 and MiaPaCa-2 (Homo sapiens, UniProt P36222); assay: Flow cytometry blockage of rCHI3L1-receptor(s) interaction, colorectal and pancreatic cancer cell lines; type: cell-based; settings: HCT116, SW480, SW620, PANC1, MiaPaCa-2, flow cytometry
CHI3L1-receptor(s) interaction on HCT116, SW480, SW620, PANC1 and MiaPaCa-2, sequence (P36222 22-383): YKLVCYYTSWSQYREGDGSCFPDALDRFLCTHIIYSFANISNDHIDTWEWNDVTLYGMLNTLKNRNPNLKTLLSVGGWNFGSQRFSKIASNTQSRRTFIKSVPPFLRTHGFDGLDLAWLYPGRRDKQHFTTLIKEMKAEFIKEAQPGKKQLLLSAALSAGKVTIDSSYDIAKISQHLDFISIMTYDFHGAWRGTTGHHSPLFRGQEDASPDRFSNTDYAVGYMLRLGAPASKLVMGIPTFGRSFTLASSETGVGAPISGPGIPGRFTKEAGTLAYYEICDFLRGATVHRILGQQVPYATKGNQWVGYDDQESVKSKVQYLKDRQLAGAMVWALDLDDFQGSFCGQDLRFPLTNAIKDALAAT
Experimental: CHI3L1 have been reported to interact with several receptors on cancer cells, and trigger downstream signaling for cancer cell growth, proliferation and anti-apoptosis (Kamba et al. 2013; Lee et al. 2016). […] His-tagged rCHI3L1 was added for CHI3L1-receptor(s) interaction. Anti-His antibody AHAb with fluorescent F recognized CHI3L1-receptor(s) R complex for detection (left, FIG. 4A). Once fully human mAbs (nCHI3L1 Ab) blocked the CHI3L1-receptor(s) interaction, the fluorescent F signals were decreased (right, FIG. 4A) and cell signaling CS was blockade.
(§1) Four selected clones of mAbs including R4-4, R4-54, 293R3-2, and 293R3-4 were further tested for blocking effect on human colorectal (HCT116, SW480, and SW620) and pancreatic cancer cell lines (PANC1 and MiaPaCa-2). […] P values were determined by one-way ANOVA. * P<0.05, ** P<0.01, *** P<0.001, **** P<0.0001. For binding specificity examination, we further coated different concentration of recombinant CHI3L1 protein, and two other major proteins in chitinase family including human chitotriosidase-1 (CHIT1) and CHI3L2 from 2.5 μg/ml to 0 μg/ml, on 96-well plate.

[2] = molecular target: recombinant CHI3L1 protein (Homo sapiens, UniProt P36222); assay: ELISA binding specificity, CHI3L1; settings: mAbs 1 μg/ml; coated protein 2.5 μg/ml to 0 μg/ml
recombinant CHI3L1 protein, sequence (P36222 22-383): as above
Experimental: as §1

[3] = molecular target: human chitotriosidase-1 (CHIT1) (Homo sapiens, UniProt Q13231); assay: ELISA binding specificity, CHIT1; settings: mAbs 1 μg/ml; coated protein 2.5 μg/ml to 0 μg/ml
human chitotriosidase-1 (CHIT1), sequence (Q13231 22-466): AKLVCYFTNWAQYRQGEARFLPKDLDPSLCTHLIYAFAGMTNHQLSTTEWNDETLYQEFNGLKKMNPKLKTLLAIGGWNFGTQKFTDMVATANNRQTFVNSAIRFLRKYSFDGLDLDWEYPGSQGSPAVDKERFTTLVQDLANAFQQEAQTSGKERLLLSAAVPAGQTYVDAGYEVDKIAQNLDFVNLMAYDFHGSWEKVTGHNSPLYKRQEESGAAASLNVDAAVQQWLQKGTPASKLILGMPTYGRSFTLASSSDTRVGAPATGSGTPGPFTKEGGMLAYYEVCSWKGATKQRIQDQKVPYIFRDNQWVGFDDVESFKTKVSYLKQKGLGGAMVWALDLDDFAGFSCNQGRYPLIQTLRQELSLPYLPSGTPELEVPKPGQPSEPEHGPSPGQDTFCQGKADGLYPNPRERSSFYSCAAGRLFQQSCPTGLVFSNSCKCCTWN
Experimental: as §1

PANC1 cells = assay: Immunoblot of rCHI3L1-induced AKT and ERK phosphorylation, PANC1; type: cell-based, human; settings: PANC1, rCHI3L1 100 ng/ml, 20 minutes, different dose of mAbs
Experimental: (§2) The involvement of CHI3L1 in intracellular signaling pathways has been reported. For example, CHI3L1 binding to CD44 activates protein kinase B (AKT) and extracellular signal-regulated kinase (ERK) signaling to promote cancer progression (Chen, Jiang et al. 2021). Thus, we tested whether mAb clones R4-4, R4-54, 293R3-2, and 293R3-4 could attenuate AKT and ERK phosphorylation in human pancreatic (PANC1), colorectal (HCT116), and lung (A549) cancer cell lines. PANC1 cells were treated with rCHI3L1 (100 ng/ml) only or rCHI3L1 with different dose of mAbs as indicated for 20 minutes.

HCT116 and A549 cells = assay: Immunoblot of rCHI3L1-induced AKT and ERK phosphorylation, HCT116 and A549; type: cell-based, human; settings: HCT116 and A549, time course
Experimental: as §2

SW480 and SW620 cells = assay: rCHI3L1-induced foci formation; type: cell-based, human
hCHI3L1/flag-His [4] = molecular target: T1, hCHI3L1/flag-His (Homo sapiens, UniProt P36222); assay: ForteBio biolayer interferometry binding analysis; settings: mAb loaded on AHC sensor, analyte hCHI3L1
T1 construct: human CHI3L1 extracellular domain fused with flag and His tag
T1 sequence (P36222 22-383): as the sequence (P36222 22-383) above
Experimental: Anti-CHI3L1 mAbs were loaded at 5 μg/mL on AHC (Anti-Human IgG Fc Capture, ForteBio, Cat #18-5060) for signal reach to approximate 0.5 nm. Sensors then were exposed to human CHI3L1 extracellular domain fused with flag and His tag recombinant protein, hCHI3L1/flag-His, solutions at 10 nM with 2 time serial dilution for 7 concentrations. Measurement were performed as follows: 1 min baseline in kinetic buffer, 5 minute association in 7 different concentrations hCHI3L1/flag-His and 5 minute dissociation into kinetic buffer. The kinetic parameters were calculated and produced by Octet Data Acquisition and Analysis Software.

hCHI3L1/flag-His [5] = molecular target: T1, hCHI3L1/flag-His; assay: In tandem epitope binning on Octet Red96; type: binding
Experimental: In order to know the epitopic coverage for those four antibodies to increase the success of therapeutic CHI3L1 antibody development, epitope binning is used to characterize the binding site of mAbs to the corresponding antigen and summarized in the Table 4. In epitope binning, mAbs specific to the same target protein are tested pairwise against all mAbs in a set to assess whether they block one another's binding to a specific site of the antigen or not. The mAbs that block binding to the same epitope are “binned” together. mAbs within the same bin often function similarly, so epitope bins can narrow down the choices to fewer candidates for investigators to choose from. The in tandem epitope binning assay conducted on Octet Red96 comprised a five-step binding cycle; 1) a buffer baseline was established for 30 sec, 2) 100 nM hCHI3L1/flag-His was captured for 5 min, 3) 100 nM mAb array was loaded to saturate the captured antigen for 10 min, 4) 100 nM of the test mAb was bound for 5 min, and 5) the capture surfaces were regenerated for 30 sec. Anti-His surfaces were regenerated with 10 mM glycine pH 1.7. Raw data was processed using ForteBio's Data Analysis HT Software 11.1 and the antibody pairs were assessed for competitive binding. Additional binding by the second antibody indicates an unoccupied epitope (non-competitor, marked as *c in Table 4), while no binding indicates epitope blocking (competitor, marked as *b in Table 4) and self-competing antibodies were marked as *a in Table 4. Among four anti-CHI3L1 mAbs, there are two epitope clusters.

MiaPaCa cells = assay: MiaPaCa orthotopic NOD-SCID mice model
Experimental: Specifically, experimental design of tumor growth inhibition in vivo. MiaPaCa cells (5×10^6) were injected into pancreas of NOD-SCID mice at Day 0. […] Mice were sacrificed on day 34. […] Since fibrosis and angiogenesis are two major issues during tumor progression, we compared the fibrosis and angiogenesis level within each groups.

B1: R4-54: fully human anti-CHI3L1 IgG1 mAb, Table 1 No. 34; heavy chain SEQ ID NO: 33, light chain SEQ ID NO: 34 (antibody, listed as Homo sapiens)
VH: QVQLVESGGGVVQPGRSLRLSCAASGFTFSSYGMHWVRQAPGKGLEWVAVISYDGSDKDYADSVKGRFTISRDNSKNTLFLQMNSLRAEDTAVYYCARDDYDSTYYFDNWGQGTTVTVSS
light: SYELTQPPSVSVSPGQTASITCSGDILADQYASWYQQKPGQSPVLVIYHDTKRPSGVPERFSGSTSGNTATLTISGTQAMDEAAYYCQAWDINTAWVFGGGTQLTVLGQPKAAPSVTLFPPSSEELQANKATLVCLISDFYPGAVTVAWKADSSPVKAGVETTTPSKQSNNKYAASSYLSLTPEQWKSHRSYSCQVTHEGSTVEKTVAPTECS
Question: For B1, which “rCHI3L1 binding to cells” value [1] is on record?
Answer: The value was “significantly reduced”.

Question: And the “binding specificity: recognition of CHI3L1” value [2]?
Answer: The value was “specifically recognized CHI3L1”.

Question: And the “binding specificity: recognition of CHIT1” value [3]?
Answer: Its value is “no other chitinase proteins”.

Question: What about the “p-AKT and p-ERK levels induced by rCHI3L1” value (PANC1 cells) of the same molecule?
Answer: The value was “inhibited p-AKT and p-ERK levels induced by rCHI3L1 in a dose dependent manner”.

Question: And the “p-AKT and p-ERK levels induced by rCHI3L1” value (HCT116 and A549 cells)?
Answer: Its value is “Inhibition of p-AKT and p-ERK”.

Question: And the number of foci (SW480 and SW620 cells)?
Answer: Its number of foci is “decreased in a dose-dependent manner”.

Question: And the “koff” value (hCHI3L1/flag-His [4])?
Answer: Its value is 0.0065 s⁻¹.

Question: What about the “kon” value (hCHI3L1/flag-His [4]) of the same molecule?
Answer: Its value is 1.54e+06 M⁻¹ s⁻¹.

Question: And the epitope cluster (hCHI3L1/flag-His [5]; among four anti-CHI3L1 mAbs)?
Answer: The epitope cluster was “unidirectional blocking results”.

Question: And the “competitive binding class, CHI3L1 293R3-2” value (hCHI3L1/flag-His [5]; paired with CHI3L1 293R3-2)?
Answer: Its value is “*^b”.

Question: And the “Epitope Binning Heat Map value, CHI3L1 293R3-2” value (hCHI3L1/flag-His [5]; paired with CHI3L1 293R3-2, 100 nM each)?
Answer: The value was 0.1002.

Question: What about the “competitive binding class, CHI3L1 293R3-4” value (hCHI3L1/flag-His [5]; paired with CHI3L1 293R3-4) of the same molecule?
Answer: Its value is “*^b”.

Question: What about the “Epitope Binning Heat Map value, CHI3L1 293R3-4” value (hCHI3L1/flag-His [5]; paired with CHI3L1 293R3-4, 100 nM each) of the same molecule?
Answer: The value was 0.1425.

Question: What about the “competitive binding class, CHI3L1 R4-4” value (hCHI3L1/flag-His [5]; paired with CHI3L1 R4-4) of the same molecule?
Answer: Its value is “*^c”.

Question: What about the “Epitope Binning Heat Map value, CHI3L1 R4-4” value (hCHI3L1/flag-His [5]; paired with CHI3L1 R4-4, 100 nM each) of the same molecule?
Answer: The value was 1.1166.

Question: And the “competitive binding class, CHI3L1 R4-54” value (hCHI3L1/flag-His [5]; paired with CHI3L1 R4-54)?
Answer: The value was “*^a”.

Question: And the “Epitope Binning Heat Map value, CHI3L1 R4-54” value (hCHI3L1/flag-His [5]; paired with CHI3L1 R4-54, 100 nM each)?
Answer: The value was 0.2160.

Question: And the “fibrosis indicated by α-SMA” value (MiaPaCa cells; comparing to IgG control and gemcitabine groups)?
Answer: Its value is “obviously decrease”.

Question: What about the “level of CHI3L1 in intratumoral region and plasma” value (MiaPaCa cells; end of experiment) of the same molecule?
Answer: The value was “lower than IgG control group”.

Question: And the “infiltrated macrophages in tumor sections (F4/80+, CD206+)” value (MiaPaCa cells; immunofluorescence, 5 mg/kg i.v.)?
Answer: The value was “more macrophages other than M2 phenotype”.

Question: And the “angiogenesis indicated by CD31 expression” value (MiaPaCa cells; mAb 5 mg/kg i.v., gemcitabine 50 mg/kg i.p.)?
Answer: The value was “decreased in every treatment groups”.

Question: And the tumor size (MiaPaCa cells; mAb 5 mg/kg i.v., gemcitabine 50 mg/kg i.p., Day 7, 14, 21, 28, sacrificed day 34)?
Answer: The tumor size was “smaller than IgG control group”.
